Patent US20240158472A1, “FERRITIN VARIANTS WITH INCREASED STABILITY AND COMPLEXATION ABILITY” (Cellis AG, priority 2021, published 2024)

What was measured:
[1] = tested on: MDA-MB 231, Skov3 and 4T1; test: Tumour cell viability after 72 h co-culture with macrophages carrying doxorubicin packed ferritin; assay type: cell-based; conditions: ferritin cages filled with doxorubicin 1 mg/ml
Procedure: FIG. 7: Graphs of tumour cell viability after 72 h co-culture with macrophages. The concentration of ferritin cages filled with doxorubicin was the same for each variant of ferritin and was equal to 1 mg/ml.
The doxorubicin packed proteins were inserted into macrophages and then co-cultured with breast and ovarian cancer cell lines: MDA-MB 231, Skov3 and 4T1. The number of viable cells after co-culture was the lowest for the Q11E-Q15E mutant (FIG. 7).

[2] = Native PAGE gel after doxorubicin encapsulation and purification; assay type: physicochemical; conditions: after doxorubicin encapsulation; mutants carry added K54E, K72E, K87Q, K144E, C91S, C103S
From the text: Native PAGE gel has been performed in order to check the size of the protein after encapsulation and purification.

[3] = Native gel after storage in freezer (-80 degrees Celsius) and thawing; assay type: physicochemical; conditions: ferritin cages with doxorubicin, mutants of b203

B1: Q11E-Q15E mutant: Examples 3-8 ferritin variant based on Q11E-Q15E with added K54E, K72E, K87Q, K144E, C91S and C103S (protein, UniProt P02794 1-183, looked up, variant Q11E Q15E K54E K72E K87Q K144E C91S C103S)
Ferritin heavy chain: MTTASTSQVRENYHEDSEAAINRQINLELYASYVYLSMSYYFDRDDVALKNFAEYFLHQSHEEREHAEKLMELQNQRGGRIFLQDIQKPDSDDWESGLNAMESALHLEKNVNQSLLELHKLATDKNDPHLCDFIETHYLNEQVEAIKELGDHVTNLRKMGAPESGLAEYLFDKHTLGDSDNES
modifications: doxorubicin-loaded form also
In the case of B1, the “number of viable cells after co-culture” value [1] is reported as “lowest”, the “forms on native gel (aggregates versus 24-mers)” value [2] is reported as “present as 24-mers (homogeneous cages)” and the “aggregation of cages after storage” value [3] is reported as “still present as 24-mers (homogeneous cages) after storage”.
